Here are results for 17 sequences from a protein production outcome set (Wang et al. 2014).
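Further: failed if final PepcDB status was selected cloned or expressed and not failed if soluble or beyond.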

A short description of this data set: label from the status in PepcDB records.
Take “MASSSSSPTPSAAAAVSPLTEEELTLTVKWNGKEYTVRICADDSVAELKRRICLLTTVLPKRQKLLYPKIGNKLSDDSLLLSSISFKPSLKMTMIGTVEDDIIVDQAESPEIVDDFELGKEEAVDVKDKEVNKQKLRRRIDQYKINLRTPCRQGKKLLVLDIDYTLFDHRSTAENPLQLMRPYLHEFLTAAYAEYDIMIWSATSMKWVELKMTELGVLNNPNYKVTALLDHLAMITVQSDTRGIFDCKPLGLIWALLPEFYNPGNTIMFDDLRRNFVMNPQNGLTIKPFRKAHANRDTDQELVKLTQYLLTIAELSDLSSLHHSRWESFSQDNVKRRRQE”: the protein production result is “failed”.

Take “MHTNWQVCSLVVQAKSERISDISTQLNAFPGCEVAVSDAPSGQLIVVVEAEDSETLIQTIESVRNVEGVLAVSLVYHQQEEQGEETP”: the protein production result is recorded as “not failed”.

With “MTRYALLVRGINVGGKNKVVMAELRQELTNLGLEKVESYINSGNIFFTSIDSKAQLVEKLETFFAVHYPFIQSFSLLSLEDFEAELENLPAWWSRDLARKDFLFYTEGLDVDQVIATVESLELKDEVLYFGKLGIF”, the protein production result is on record as “failed”.

Regarding “MKGVIMIIDGMADRPLEKLSGRTPLEAASTPNMDRIAESGINGIMDPIKPGVRAGSDTSHLSILGYDPYRVYTGRGPFEAAGVGLDVKPGDIAFRCNFATADEDMIITDRRAGRIRSGTSSIARTINSMTIEGFEDVEIIFRESTGHRAVLVLRGPGLGDKVSDADPKVEGKPPKKIKALDGSPESRKTAEVLNRIVKESYEILRDHPVNTGRIERGEAPANIILPRGAGAVPHVEKFQERYDLKAACIAETGLIKGIGHLTGMDVIDVEGATGGIDTDLESIKNAISSAIAADYDFLLINIDGADEAGHDGDLEGKVRFIERVDSILGDLMGDDIYFILTADHSTPVSVMDHTGDPVPIAITGPEVRVDDVTSFSERAAAAGGLCRIRGSDVMDILLDLMNKKEKFGALEHHHHHH”, the protein production entry is “failed”.

As to “MNLTELMERIPHLREILNIVREAFKDYDDPAHDISHTFRVMENASEIASREKCDLQKAIIAALLHDIKRPHEALTGVDHAESGAEYASGLLPTMGFDISFVAEVSKAIRSHRYSGGLTPTSLTGKILQDADRLDAIGAVAIARVFSYSGKTGTPLHSLQFSPRSSYSGNSRSSINHFHEKILKIRPETFWTETARKMAEDRYSFVVEFVQRFLAEWGQI”, the protein production result is on record as “not failed”.

As to “MASHIVGYPRMGPKRELKFALESFWDGKSSADDLQKVSADLRSDIWKQMSAAGIKYIPSNTFSHYDQVLDTTAMLGAVPSRYGFTSGEIGLDVYFSMARGNASVPAMEMTKWFDTNYHYIVPELGPEVKFSYASHKAVNEYKEAKALGVETVPVLVGPVSYLLLSKLAKGVDKSFDLLSLLPKILPVYKEVIAELKAAGASWIQLDEPLFVMDLEGHKLQAFSGAYAELESTLSGLNVLVETYFADIPAEAYKTLTSLKGVTAFGFDLVRGTKTIDLIKSGFPQGKYLFAGVVDGRNIWANDLAASLITLQSLEGVVGKDKLVVSTSCSLLHTAVDLINETKLDAEIKSWLAFAAQKVVEVDALAKALAGQTNESFFTANADALSSRRSSPRVTNESVQKAAAALKGSDHRRTTEVSARLDAQQKKLNLPILPTTTIGSFPQTVELRRVRREYKAKKISEEDYVKAIKEEIKKVVDIQEDLDIDVLVHGEPERNDMVEYFGEQLSGFAFTANGWVQSYGSRCVKPPVIYGDVSRPKPMTVFWSSTAQSMTKRPMKGMLTGPVTILNWSFVRNDQPRHETCYQIALAIKDEVEDLEKGGIGVIQIDEAALREGLPLRKAEHSFYLDWAVHSFRITNCGVQDSTQIHTHMCYSNFNDIIHSIIDMDADVITIENSRSDEKLLSVFREGVKYGAGIGPGVYDIHSPRIPSTDEIADRINKMLAVLEQNILWVNPDCGLKTRKYTEVKPALKAMVDAAKLIRSQLGSAK”, the protein production entry is listed as “failed”.

With “MFKSVAKLGKSPIFYLNSQRLIHIKTLTTPNENALKFLSTDGEMLQTRGSKSIVIKNTDENLINHSKLAQQIFLQCPGVESLMIGDDFLTINKDRMVHWNSIKPEIIDLLTKQLAYGEDVISKEFHAVQEEEGEGGYKINMPKFELTEEDEEVSELIEELIDTRIRPAILEDGGDIDYRGWDPKTGTVYLRLQGACTSCSSSEVTLKYGIESMLKHYVDEVKEVIQIMDPEQEIALKEFDKLEKKLESSKNTSHEK”, the protein production result is “failed”.

For the sequence “MKILAIINPISGIGSKSNIPSLIADVFAHDPHELFITYSQRAGHARELAAQAVEKHYDCVIAVGGDGTVNEIAQSLRYTDVVLGIVPKGSGNGLARALKLPLTVGKALEVIRAGHVRTIDCCEADSR”, the protein production result was “failed”.

In the case of “MRLGPAATSPSSGPRILPPAAHGDPRTAALPRATHLQIHDRRALSGLRDHPHLESVHLKGDFTLADLKALPTTLRHLDLSECTGSAKSFRAIAYLAGLPLESLNVAGAEIGDGGARLLAANPSLKSLNAASGGISASGARMLAESPTLESLDLTQNAIGDAGAQALAGSRSLRHLAVRNGLVTDLGTRALALNPALVSLDLGNLVTETGNQVEQDGYDKTANNITAQGAWALAQNRSLKSLSVQGNDLCGDDGVRALARNRTLTSLNVAFTNMTSASAKALADNPVLTSLSVRWNYGLDDAGAMELAMSRSLTSLDARDTGMSARGALALAANARISVWHDHANPVRAPLGEPPLSGLAGDPGQASRTAPGGAIWSSAAQARHVSAEAPANSAMTASTREGFALIDPFFNRVARESGLNVQAPQEMPWTRLRPSASEANHGNAGAHGASAEGLASSRMAASIREGLGLIDQYVDRMGREYGLPVRAPAAQPDSAAPEATQPTLPADVWQTIAAQADPRVRRTLSTVSKPLRAAALAATKHLTVWDKAAFSRLRNYPALESLSFHGPLSLADLRALPPSVRHLDLSGCTGSAVSEAGLAYLARLPLASLDLSDTGIGNRGAQALAASASLTSLNLSGNGIGTAGAEALGRNTVLTALDISANPIRNAGAQALAGSRSLTSLELRDTGIEDGGIEALAANTVLRSLDISGNDLSDQSAAALAANRTLTSLKANGCGLTNDMAQQLARIRSLRTLEVGSNSIGDAGVLTIARNASLRSLNLSRNPITPQGLYPLALSRTLKSLDVSRIGCGDRGALLLSGNRALTSLKLGFNRVSSEGARRLAANRTLVSLDLRGNTIDVAAARALANAEPLASLNVSDCRLDDAVACALAESRTLTSLDVSWNRLSHRAARALANNPVLASLYISHNDIGPEGAQALADSASLTFLDARANRIGEAGARLLEANTRMRGTPQNPHFLAQDVPE”, the protein production result was “failed”.

With “MKSRTSELAAGIFVIIFGVALFFLAMKVSGLAGTNLSDPYTMTAQFDNVNGLKPRAKVTMSGVTIGRVDAITLDPVTRLATVTFDLDGKLTTFNAKQLKTVEQNALEELHYSSDYKSAEPAKQKVMEQQLIDNMKSITSIDEDAYIMVSTNGLLGEKYLKIVPGGGLNYLKRGDAITNTQGTMDLEDLISKFITGGAGKSSDNSTGTAAQSSSSEDKEPSFTELEHHHHHH”, the protein production entry was “failed”.

Consider “MKIILFLTLIVFTSCELYHYQECVRGTTVLLKEPCPSGTYEGNSPFHPLADNKFALTCTSTHFAFACADGTRHTYQLRARSVSPKLFIRQEEVQQELYSPLFLIVAALVFLILCFTIKRKTE”, for which the protein production result was “not failed”.

With “MQARDIMTTTVVSISPDVSVRHAVAMMLQNHVSGLPVVDDHGRVCGMVTEGDLLLRREVRYAPRPARAPELISEIDLERYIGSNGWCVADVMSQDVIVARPDSEVSDIAESLQVHRIKRLPIVEDERLVGIVSRRDILRVIAEAPTTILPRGDEAIRLAVRTRLRSDLGLTPQKVHVSVRNGQVTVDGQVESELKRRAIKVLVEGLGGIAGYKDGLLVSPAHIQD”, the protein production result is “failed”.

For the sequence “MRKLRKLLLFSTVLFVVFTQLFGFIITVDAAETATINLSAEKQVIRGFGGMNHPVWISDLTPQQRDTAFGNGEGQLGFTILRIHVDENRNNWSKEVATARRAIELGAIVFASPWNPPSNMVETFTRNGVPNQKRLRYDKYGDYVQHLNDFVAYMKSNGVDLYAISVQNEPDYAHEWTWWTPQEMLRFMRDYAGQINCRVMAPESFQYLKNMSDPILNDPQALANLDILGAHFYGTTVNNMPYPLFEQKGAGKELWMTEVYVPNSDSNSADRWPEALEVAHNMHNALVEGNFQAYVWWYIRRSYGPMKEDGTISKRGYMMAHYSKFVRPGYVRVDATKNPTYNVYLSAYKNKKDNSVVAVVINKSTEAKTINISVPGTSIRKWERYVTTGSKNLRKESDINASGTTFQVTLEPQSVTTFVGGGSSEPQIPVERNAFSKIECEEYNATNSSTVQVVGTGTGSGLGYIENGNYFAYKNINFGNGANSFKIRAATTGTPKIEIRLGSPTGTLAGTLQVAATGGFNAYEEQSCSINKITGVQDVYLVFGGAVNVDWFTFESKQEPTFKYGDLNGDGNVNSTDSTLMSRYLLGIITTLPAGEKAADLNGDGKVNSTDYNILKRYLLKYIDKFPVES”, the protein production entry was “failed”.

For “DEVENLYTQVADNEYLVQGRMLIDEFNEVFETDLHMSDVDTMAGYLITALGTIPDEGEKPSFEVGNIKLTAEEMEGTRLLVLRVHFYDEE”, the protein production entry was “not failed”.

With “MAKHLGESKQKLLQLMALSCPIRLNNAPRRLAKQARSQRIKRNISKGPGMSLSRCLSGLSNLLHYRREWLRADLRAGLSVAAIQIPIAIAYAQIVGLPPQYGLYACVLPMIVYALIGSSRQLMVGPDAATCAMLGGAVAPLAMGDLQRTVELSMIVTVLVGLMLIAAGIARAGFIASFFSRPILIGYLNGIGLSLIAGQMGKVVGFKIEGDGFILGLADFLQRLGEIHGLTLAVGLASLGLLIWLPRRYPRVPAALLTVALFTLLAGLLGFDRLGVAILGHVPAGMPELSWPKTTLEESKSLLRDALGIATVSFCSAMLTARSFAARHGYAINANHEFIALGLSNLAAGASQGFAISGADSRTAVNDMAGGKSQLVGIIAALAIALILLFFTAPMAWIPQPALGAVLLMAGWGLLDVKSLKQIYRLSRFEFWLCLLTTVSVLGLGVLPGIMFAVTLAILRLLYSIYQPTDAVLGWMPGIEGQVDIRQYPQARTVPGLVVYRFDDAILFFNADYFKMRLLDTVQRESQPEVVLFDAEAVTDIDVSGIAVLREIRETLAAQGIYFAIARARGTFLAMLERSGMTREMDSQLLFGSVRSGIRTYRIWRNSMRGKQ”, the protein production entry is given as “failed”.

On to “MNGSADAGPRPRKYVFITGGVVSSLGKGILTSSLGALLRARGYRVTAIKIDPYVNVDAGTMRPYEHGEVFVTADGAETDLDIGHYERFLDMDLSRGNNLTTGQVYLSVIQKERRGEYLSQTVQVIPHITDEIKERIRKVAEEQKAEIVVVEVGGTVGDIESLPFLEAIRQFRFDEGEGNTLYLHLTLVPYLETSEEFKTKPTQHSVATLRGVGIQPDILVLRSARPVPEEVRRKVALFTNVRPGHVFSSPTVEHLYEVPLLLEEQGLGRAVERALGLEAVIPNLSFWQEAVRVLKHPERTVKIAIAGKYVKMPDAYLSLLEALRHAGIKNRARVEVKWVDAESLEAADLDEAFRDVSGILVPGGFGVRGIEGKVRAAQYARERKIPYLGICLGLQIAVIEFARNVAGLKGANSTEFDPHTPHPVIDLMPEQLEVEGLGGTMRLGDWPMRIKPGTLLHRLYGKEEVLERHRHRYEVNPLYVDGLERAGLVVSATTPGMRGRGAGLVEAIELKDHPFFLGLQSHPEFKSRPMRPSPPFVGFVEAALAYQERA”, for which the protein production result was “not failed”.

As to “MSWLFSTLVFFLTLLTAGIALYLITARRYQSSNSVANSYDQWTEDGILEFYWGEHIHLGHYGSPPQRKDFLVAKSDFVHEMVRWGGLDKLPPGTTLLDVGCGIGGSSRILARDYGFAVTGITISPQQVQRAQELTPQELNAQFLVDDAMALSFPDNSFDVVWSIEAGPHMPDKAIFAKELMRVLKPGGIMVLADWNQRDDRQKPLNFWEKPVMQQLLDQWSHPAFSSIEGFSELLAATGLVEGEVITADWTKQTLPSWLDSIWQGIVRPEGLVRFGLSGFIKSLREVPTLLLMRLAFGTGLCRFGMFRALRADTVRSSAEQTSAIKVAQK”, the protein production result is “failed”.
